# US20190184028A1 (Janssen / Centocor, published 2019)
# B1: 83v15-SPION (designed binder)
# chain: MLPAPKNLVVSEVTEDSARLSWDDPWAFYESFLIQYQESEKVGEAIVLTVPGSERSYDLTGLKPGTEYTVSIYGVHNVYKDTNMRGLPLSAIFTTGGHHHHHHC
# modifications: C-terminal Cys coupled to a superparamagnetic iron oxide nanoparticle (SPION)
# notes: Cysteine variant of P54AR4-83v2 on a nanoparticle; also called 83v15 = C-terminal
# B2: EEB9 PEG4-MMAF conjugate (designed binder)
# chain: MLPAPKNLVVSRVTEDSARLSWTAPDAAFDSFQIYYSELLSYGEAIVLTVPGSERSYDLTGLCPGTEYTVSINGVKGGTRSWSLSAIFTTAPAPAPAPAPLPAPKNLVVSRVTEDSARLSWTAPDAAFDSFQIYYSELLSYGEAIVLTVPGSERSYDLTGLCPGTEYTVSINGVKGGTRSWSLSAIFTTAPAPAPAPAPTIDEWLLKEAKEKAIEELKKAGITSDYYFDLINKAKTVEGVNALKDEILKA
# modifications: Iodoacetyl-PEG4-MMAF on cysteines; 2 MMAF after conjugation
# notes: Bivalent P155R8-G3 with ABDcon12
# B3: EEB10 PEG4-MMAF conjugate (designed binder)
# chain: MLPAPKNLVVSRVTEDSARLSWTAPDAAFDSFQIYYSELLSYGEAIVLTVPGSERSYDLTGLCPGTEYTVSINGVKGGTRSWSLSAIFTTAPCPAPAPAPLPAPKNLVVSRVTEDSARLSWTAPDAAFDSFQIYYSELLSYGEAIVLTVPGSERSYDLTGLCPGTEYTVSINGVKGGTRSWSLSAIFTTAPCPAPAPAPTIDEWLLKEAKEKAIEELKKAGITSDYYFDLINKAKTVEGVNALKDEILKA
# modifications: Iodoacetyl-PEG4-MMAF on cysteines; 4 MMAF after conjugation
# notes: as for B2
# B4: EEB8 PEG4-MMAF conjugate (designed binder)
# chain: MLPAPKNLVVSRVTEDSARLSWTAPDAAFDSFQIYYSELLSYGEAIVLTVPGSERSYDLTGLCPGTEYTVSINGVKGGTRSWSLSAIFTTAPAPAPAPAPLPAPKNLVVSRVTEDSARLSWTAPDAAFDSFQIYYSELLSYGEAIVLTVPGSERSYDLTGLKPGTEYTVSINGVKGGTRSWSLSAIFTTAPAPAPAPAPTIDEWLLKEAKEKAIEELKKAGITSDYYFDLINKAKTVEGVNALKDEILKA
# modifications: Iodoacetyl-PEG4-MMAF on cysteine; 1 MMAF after conjugation
# B5: EEB11 PEG4-MMAF conjugate (designed binder)
# chain: MLPAPKNLVVSRVTEDSARLSWTAPDAAFDSFQIYYSELLSYGEAIVLTVPGSERSYDLTGLCPGTEYTVSINGVKGGTRSWSLSAIFTTAPCPAPAPAPLPAPKNLVVSRVTEDSARLSWTAPDAAFDSFQIYYSELLSYGEAIVLTVPGSERSYDLTGLCPGTEYTVSINGVKGGTRSWSLSAIFTTAPAPAPAPAPTIDEWLLKEAKEKAIEELKKAGITSDYYFDLINKAKTVEGVNALKDEILKA
# modifications: Iodoacetyl-PEG4-MMAF on cysteines; 3 MMAF after conjugation
# notes: as for B2
# B6: 83v10-SPION (designed binder)
# chain: MLPAPKNLVVSEVTCDSARLSWDDPWAFYESFLIQYQESEKVGEAIVLTVPGSERSYDLTGLKPGTEYTVSIYGVHNVYKDTNMRGLPLSAIFTTGGHHHHHH
# modifications: Cys 15 coupled to a superparamagnetic iron oxide nanoparticle (SPION)
# notes: Cysteine variant of the EGFR-targeting FN3 domain P54AR4-83v2, many copies on a nanoparticle (50:1 molar ratio in the reaction); also called 83v10 = E15C
# B7: 83v12-SPION (designed binder)
# chain: MLPAPKNLVVSEVTEDSACLSWDDPWAFYESFLIQYQESEKVGEAIVLTVPGSERSYDLTGLKPGTEYTVSIYGVHNVYKDTNMRGLPLSAIFTTGGHHHHHH
# modifications: Cys 19 coupled to a superparamagnetic iron oxide nanoparticle (SPION)
# notes: Cysteine variant of P54AR4-83v2 on a nanoparticle; also called 83v12 = R19C
# Key:
# [1] = target: T1, epidermal growth factor receptor (EGFR) (human, UniProt P00533 25-1210); assay: flow cytometry on H292 cells
# T1 construct: whole, on cells; The cell assays use human tumour lines; also called hEGFR
# Method: To determine the activity of the recently created FN3 domain molecule-SPION, cell targeting assays were set-up in vitro. H292 cells were dissociated from a T-150 cell culture flask using Hank's Enzyme free dissociation buffer (Invitrogen—13150-016). The cells and dissociation buffer were incubated for 15 minutes in a cell incubator. The flask was gently tapped to dissociate any residually bound cells and the buffer and cells were transferred to a 15 mL conical tube. The cells were spun at 1,000 rcf for 2 minutes. The supernatant was gently removed with careful consideration paid to not disturbing the pelleted cells. The cell pellet left over was reconstituted in 1.5 mL of phenol-red free RPMI 1640 media with 10% FBS. It was determined that the suspension contained approximately […]. 100 μL of this suspension was added to each well of a 96-well plate. FN3 domain molecule-SPION sample concentrations are listed above. From these known concentrations, FN3 domain molecule-SPION was added to each well so that the final concentration of FN3 domain molecule-SPION with the cells was 100 μg/mL Fe. Samples were plated in triplicate and incubated for 30 minutes and then purified via 3× centrifugation at 1,000×rcf and resuspension in dPBS pH 7.2. Samples were suspended in a final volume of 300 μL and moved to a clear, flat bottom 96-well plate for analysis on the Guava HTS flow cytometer. A total of 8,000 cells were counted for each sample. Following flow, population samples were analyzed using FlowJo. Each sample was gated so that only live cells were assessed for fluorescence. Histograms were obtained wherein the black peak (the peak to the left side of the graph) is the autofluorescence obtained from unlabeled H292 cells. The blue peak (the peak to the right side of the graph) corresponds to the sample title above the histogram. 83v10, 83v12 and 83v15 are positively shifted compared to the tencon25 control or blank cells (FIGS. 1A-1D). […] All samples were normalized by subtracting the blank cell autofluorescence from the mean fluorescent intensities of each sample. […]
# [2] = target: T1, epidermal growth factor receptor (EGFR); assay: table column 'Binding antigen'; no assay given
binder,measurement,setting,value
B1,binding result,[1],binds
B2,binding result,[2],binds
B3,binding result,[2],binds
B4,binding result,[2],binds
B5,binding result,[2],binds
B6,binding result,[1],binds
B7,binding result,[1],binds
